Assay [1] deals with CLDN18.1 expressed on HEK 293 cells (UniProt P56856). The experiment in a line: FACS, secondary antibody alone on HEK 293 cells expressing CLDN 18.1. Background: In flow cytometry, cells or beads pass a laser one at a time.
In assay [2] the target is human Claudin 18.2 (CLDN18.2) expressed on cells (human) (UniProt P56856). The experiment in a line: FACS, secondary antibody alone on HEK 293 cells expressing CLDN 18.2.

For the substance Sec. antibody, the MFI in assay [1] was found to be 18; in assay [2], 53.

Source of the values: patent US20200040101A1.
